Literature values in paper PMC11084152, “Galf-Specific Neolectins: Towards Promising Diagnostic Tools” (International Journal of Molecular Sciences, 2024).

Parameters: method as in PMID 26148048
Settings: β-D-Galf-substituted surface; read-out: functional affinity value

B1: hIntL-1: human intelectin-1, galactofuranosyl-binding lectin used as positive control (protein, UniProt Q8WWA0 19-298, looked up)
Intelectin-1: TDEANTYFKEWTCSSSPSLPRSCKEIKDECPSAFDGLYFLRTENGVIYQTFCDMTSGGGGWTLVASVHENDMRGKCTVGDRWSSQQGSKAVYPEGDGNWANYNTFGSAEAATSDDYKNPGYYDIQAKDLGIWHVPNKSPMQHWRNSSLLRYRTDTGFLQTLGHNLFGIYQKYPVKYGEGKCWTDNGPVIPVVYDFGDAQKTASYYSPYGQREFTAGFVQFRVFNNERAANALCAGMRVTGCNTEHHCIGGGGYFPEASPQQCGDFSGFDWSGYGTHVGYS
**Q.** With B1 as the molecule, how does the Kd read?
**A.** 85 ± 14 nM
